Source: the DeepSol protein solubility set

Test: soluble on expression in E. coli; label from the status in PepcDB or PDB records

Sequence | soluble on expression in E. coli
MPFGLKSSQSIDDKFMSITQMKNLIHYVKKNDALSHLCIYILIITGSRFKPVQHLRYEDLNFKKSCIHLNDTKNKYSKRNVKVRIKDLEYIQSVINKHPINQNGYIFHNFINFISYSAINDVLVRFCLKYKYDKYTLKSLRHTHCSYLLAKGISIQYISKRLGHADIHTTLKIYSHLIKEFEDSENSLIEKNLNDLFSDLEHHHHHH | soluble
MLITKNQAEKWFDNSLGKQFNPDLFYGFQCYDYANMFFMIATGERLQGLYAYNIPFDNKARIEKYGQIIKNYDSFLPQKLDIVVFPSKYGGGAGHVEIVESANLNTFTSFGQNWNGKGWTNGVAQPGWGPETVTRHVHYYDDPMYFIRLNFPDKVSVGDKAKSVIKQATAKKQAVIKPKKIMLVAGHGYNDPGAVGNGTNERDFIRKYITPNIAKYLRHAGHEVALYGGSSQSQDMYQDTAYGVNVGNNKDYGLYWVKSQGYDIVLEIHLDAAGESASGGHVIISSQFNADTIDKSIQDVIKNNLGQIRGVTPRNDLLNVNVSAEININYRLSELGFITNKKDMDWIKKNYDLYSKLIAGAIHGKPIGGLVAGNVKTSAKNQKNPPVPAGYTPDKNNVPYKKETGYYTVANVKGNNVRDGYSTNSRITGVLPNNATIKYDGAYCINGYRWITYIANSGQRRYIATGEVDKAGNRISSFGKFSAVLEHHHHHH | not soluble
MGSDKIHHHHHHMLKRKIETFLAKWKKSEDRKPLVIKGIRQCGKTYIVQKFAKENYESVVYMNFILEPDKKSAFTGNIDVDTIILNLSALIQGSRFINGKTCIILDEIQECKEARTALKSFHIDGRFDVIATGSLLGVKGYDKSKKKKEEEEGQDSVPVGYETVIDMYPLDFEEFLWANGISDMVIDSVKSCFENESTVPDGIHKAMMELLYRYVIVGGLPEVVNCFLETKNIELIYKVQRNLIAEYEEDMVKYADDPDKPRIRECFESIPKQLAKENKKFQYSVVKKGGRASQYIGSIQWLEDAGIVRRCYNTQITELPLEGNSIKGSFKVYTTDIGILMAMLDYGTQADILKGNLLGYKGAIFENLMADFLCKSGQKLYYFHKDSGLELDFLVRFKGECVILEVKAKTGKAKSMTTVLKNKDVYYVNNAIKLGQYNVGCEGDILTIPLYMGFLVEDKLADVIIPDVDVSLLTTI | not soluble
MNRPSGRAADQLRPIRITRHYTKHAEGSVLVEFGDTKVICTVSAESGVPRFLKGQGQGWLTAEYGMLPRSTGERNQREASRGKQGGRTLEIQRLIGRSLRAALDLSKLGENTLYIDCDVIQADGGTRTASITGATVALIDALAVLKKRGALKGNPLKQMVAAVSVGIYQGVPVLDLDYLEDSAAETDLNVVMTDAGGFIEVQGTAEGAPFRPAELNAMLELAQQGMQELFELQRAALAE | soluble
MTPRIIVTDMDGTLLNSEHEIPARFWPLLDEMHEQGIVFAPASGRQLYTLLDQFAQAGKDLSVIAENGTVVYHEGEIISVTTIDPEVAHRVIRTMAHSDLDWGVVVCRVDGAFIARGDVEFLTETVRYYAKLDVVDDLHSVVNDQVIKLAIYSFPDAETVAAPALAESVGDHTLAISGAHWIDIMSPHANKGVALQQLADNLGVPIEHTAAFGDYLNDYELLHTAGTAYAMSNAHPDIKDIADHVVGSNDEESVLTTIHSLLTAAK | not soluble
MYVYKRDGRKEPVQFDKITARISRLCYGLDPKHIDAVKVTQRIISGVYEGVTTIELDNLAAETCAYMTTVHPDYATLAARIAISNLHKQTTKQFSKVVEDLYRYVNAATGKPAPMISDDVYNIVMENKDKLNSAIVYDRDFQYSYFGFKTLERSYLLRINGQVAERPQHLIMRVALGIHGRDIEAALETYNLMSLKYFTHASPTLFNAGTPKPQMSSCFLVAMKEDSIEGIYDTLKECALISKTAGGIGLHIHNIRSTGSYIAGTNGTSNGLIPMIRVFNNTARYVDQGGNKRPGAFALYLEPWHADIFDFIDIRKNHGKEEIRARDLFPALWIPDLFMKRVEENGTWTLFSPTSAPGLSDCYGDEFEALYTRYEKEGRGKTIKAQKLWYSILEAQTETGTPFVVYKDACNRKSNQKNLGVIKSSNLCCEIVEYSAPDETAVCNLASVALPAFIETSEDGKTSTYNFKKLHEIAKVVTRNLNRVIDRNYYPVEEARKSNMRHRPIALGVQGLADTFMLLRLPFDSEEARLLNIQIFETIYHASMEASCELAQKDGPYETFQGSPASQGILQFDMWDQKPYGMWDWDTLRKDIMKHGVRNSLTMAPMPTASTSQILGYNECFEPVTSNMYSRRVLSGEFQVVNPYLLRDLVDLGIWDEGMKQYLITQNGSIQGLPNVPQELKDLYKTVWEISQKTIINMAADRSVYIDQSHSLNLFLRAPTMGKLTSMHFYGWKKGLKTGMYYLRTQAASAAIQFTIDQKIADQATENVADISNLKRPSYMPSSASYAASDFVPAAVTANATIPSLDSSSEASREASPAPTGSHSLTKGMAELNVQESKVEVPEVPAPTKNEEKAAPIVDDEETEFDIYNSKVIACAIDNPEACEMCSG | soluble
IPMRLLSDCPQFSRKTVKLLTNGGDMLELCYELRLPFVHWISVNQKSSFKRYEISHVYRRAIGHSPPNPCLQADFDIVGGTLSLTEAEVLKVIVDITTHIFHRGSCDIHLNHGDLLDAIWSWAGIKAEHRRKVAELLSMMGSLRPQSSERKLKWVFIRRQLLQELKLPEAVVNRLQTVASRFCGDADQALPRLRGALRADRPTRKALDELSNLLTYLRVWRIEEHVHIDVLMPPTESYHRNLFFQVFLTKENSSGTSNDGVLLAVGGRYDWLVQEVCDREHKMNLPGAVGVSLALETIFQHLPMDLRPIRNEVSTSVLVCSRGGGGLLVQRMELVAELWEKSIKAEFVPTPDPSLTEQYEYANEHEIKCLVIITESGVAQNQIEFVKVRHLELKKEKVVGR | soluble
MRNQFDLELHELEQSFLGLGQLVLETASKALLALASKDKEMAELIINKDHAINQGQSAIELTCARLLALQQPQVSDLRFVISIMSSCSDLERMGDHMAGIAKAVLQLKENQLAPDEEQLHQMGKLSLSMLADLLVAFPLHQASKAISIAQKDEQIDQYYYALSKEIIGLMKDQETSIPNGTQYLYIIGHLERFADYIANICERLVYLETGELVDLN | soluble
MPLCTLRQMLGEARKHKYGVGAFNVNNMEQIQGIMKAVVQLKSPVILQCSRGALKYSDMIYLKKLCEAALEKHPDIPICIHLDHGDTLESVKMAIDLGFSSVMIDASHHPFDENVRITKEVVAYAHARSVSVEAELGTLGGIEEDVQNTVQLTEPQDAKKFVELTGVDALAVAIGTSHGAYKFKSESDIRLAIDRVKTISDLTGIPLVMHGSSSVPKDVKDMINKYGGKMPDAVGVPIESIVHAIGEGVCKINVDSDSRMAMTGAIRKVFVEHPEKFDPRDYLGPGRDAITEMLIPKIKAFGSAGHAGDYKVVSLEEAKAWYK | soluble
MEAKAIARYVRISPRKVRLVVDLIRGKSLEEARNILRYTNKRGAYFVAKVLESAAANAVNNHDMLEDRLYVKAAYVDEGPALKRVLPRARGRADIIKKRTSHITVILGEKHGK | soluble
GPGSMRNLVREGITPPVLVFVQSVERSKELYEEIRMEGLHMAIMHAKMTVEQREETVLQFRLGKIWVLVTTELLARGIDFKNVGTVINFDFPATVDSYIHRVGRTGRAGKEGTAITFFTEDDKERLPPIAKVMQDSGNAVEDWILGIKVDRSTRRRLERTTPQRTIVSTRKRMLVAQQRVQRQYRRLEAEKAAKQASKRSKGCGDCDRDDGDDSTDDA | soluble
MRNKADNKKRNFLTHSEIESLLKAANTGPHATRNYCLILLCFIHGFRASEICRLRISDIDLKAKCIYIHRLKKGFSTTHPLLNKEVQALKNWLSIRTSYPHAESEWVFLSRKGNPLSRQQFYHIISTSGGNAGLSLEIHPHMLRYSCGFALANMGIDTRLI | not soluble
MGHHHHHHSHMKDLTDMDKNSPEAWCAAGNCFSLQREHDIAIKFFQRAIQVDPNYAYAYTLLGHEFVLTEELDKALACFRNAIRVNPRHYNAWYGLGMIYYKQEKFSLAEMHFQKALDINPQSSVLLCH | not soluble
MGSDKIHHHHHHMIRILMGSYGSGKTEISINLALKLKSSGKDVSLVDLDVVTPYFRLRDLKKKLEELGIHVVTVGDNLRYSDLPIIPKNTDWLSSEEAVIDTGGEDGAKAVGALRHLMNGKNTHTYFVVNAFRPFCERPEDIIENLKKISTLSKMKIDFLINNSNLGDMTTAEVVLEGERIVSEVSRKTGIKVLFTVVPEELIDPPETDYPLFSIRRFMKRKLGIGGMRT | not soluble
TVQTQDKVTAMDKDPKVTVDVTGYQWNWKFGYAKVAGELSPTGSDYVGTDEKRQEAAEKTKFDQGGDNPNPINGRSKTDTSYLHFNKIETLGTSEEIPV | not soluble
